Earlier results in paper PMC5535775.

Target: DIAPH1 FH1 (Homo sapiens) (UniProt O60610)
Assay: NMR

Chain of UniProt O60610 (O60610 580-767): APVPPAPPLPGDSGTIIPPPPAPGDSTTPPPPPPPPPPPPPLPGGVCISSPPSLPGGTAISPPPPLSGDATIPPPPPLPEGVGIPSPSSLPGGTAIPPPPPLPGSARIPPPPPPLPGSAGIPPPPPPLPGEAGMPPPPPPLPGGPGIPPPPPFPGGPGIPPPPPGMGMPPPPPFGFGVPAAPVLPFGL

Kd: < 10 µM
Substance: RAGE cytoplasmic domain (from UniProt Q15109)
